From PMC10955725

Target: His6-Mb(S2)-Avi, recombinant monobody
Test: BLI

Kd: 7 µM
Substance: wild-type (WT) SOD1, non-tagged recombinant (from UniProt P00441 2-154) (natural protein)
